12 molecules from US20170182124A1, “FGF21 Derivatives and Uses Thereof” (Novo Nordisk A/S, priority 2014, published 2017) can be followed below.

Numbering of substitutions follows the chain as printed. Read-outs that look alike come from different tables or passages of the source.

The target in assay [1] is 3T3-L1 adipocytes (Mus musculus, UniProt P16092+Q99N32). As to the kind of experiment: Glucose uptake in 3T3-L1 adipocytes. The class given is cell-based. The following applies: stimulated 20 hours, 3H-deoxy-glucose. How it is done:
The C-terminal modified analogues were tested for their ability to increase glucose uptake in 3T3-L1 mouse adipocytes. The following assay was used for determining the biological activity, or potency, of FGF21 analogues and derivatives of the invention.
The in vitro potency may also be determined in an assay with mouse 3T3-L1 adipocytes by testing the FGF21 analogues and derivatives for their ability to increase glucose uptake into adipocytes. Differentiated 3T3-L1 adipocytes endogenously express FGFR1c and BKL. The 3T3-L1 cells are unresponsive to FGF21 until after differentiated as differentiation lead to expression of the co-receptor BKL. Activation of the FGFR1 receptor/BKL complex increase the expression of glucose transporter 1 (GLUT1) and therefore FGF21 agonists will lead to an increased amount of glucose taken into the adipocytes in a dose responsive manner.
Mouse 3T3-L1 fibroblasts (e.g. available from ATCC, catalogue no. CL-173) were maintained in basal medium (DMEM (4500 mg/I Glucose) with 10% Fetal Bovine Serum (FBS) and 1% Penicillin/Streptomycin). The cells are not allowed to reach confluence and should be passed (transferred to new vials) before reaching approx. 60% of confluency (by visual inspection).
For the glucose uptake assay, cells were 15.000 cells/well in a 96 well plate (BIOCOAT), and when they reached confluency (high density, with a view to have differentiated adipose cells made), the medium was changed from basal medium to basal medium containing Troglitazone, IBMX, Dexamethasone (commercially available from, e.g., Sigma) and human insulin (commercially available from, e.g., Novo Nordisk A/S).
The cells were used 7-9, days after initiation of differentiation. The cells were stimulated with increasing concentrations (0-300 nM) of the FGF21 analogues or derivatives of the invention for 20 hours in basal medium. Before addition of 3H-deoxy-glucose (in what follows: the tracer) the cells were washed in warm (approximately 37° C.) assay buffer (PBS with 1 mM MgCl2 and 2 mM CaCl2), HEPES and 0.1% Human serum albumin) and the cells were incubated with the tracer for 1 hour. This incubation was terminated by washing twice in ice cold assay buffer. The cells were lysed with Triton X-100 and lysates transferred to a 96 wells plate, microscint-40 (commercially available from, e.g., Perkin Elmer) was added and amount of tracer counted in a TOP-counter (e.g. a Packard top-counter from Perkin Elmer). The EC50 and Emax of the FGF21 compound in question were calculated. The results which are shown in tables 4-5 below indicate the EC50 (potency) and Emax (efficacy) of the FGF21 analogues and derivatives, respectively.

Assay [2] concerns the target FGF receptor/BKL complex. The experiment in a line: FGF receptor potency in an Erk phosphorylation assay in HEK293 overexpressing human BKL. The class given is cell-based. Particulars: for EC50: HEK293/BKL cells, pERK after 12 minutes. The gist of the method:
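pERK after 12 min analogue exposure at 37° C. was quantified by AlphaScreen SureFire in lysates of beta-klotho-transfected HEK293 cells. Assay medium was DMEM with 0.02% Tween20, run both without albumin and with 0.1% final HSA to probe albumin binding. Cells were starved 2 h in basal medium first. Absolute EC50 reported.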

The mark [3] stands for this setting: presence of 0.1% HSA, read-out: EC50 (0.1% HSA).

Sequence of FGF receptor/BKL complex (Q86Z14 whole entry, one chain of several): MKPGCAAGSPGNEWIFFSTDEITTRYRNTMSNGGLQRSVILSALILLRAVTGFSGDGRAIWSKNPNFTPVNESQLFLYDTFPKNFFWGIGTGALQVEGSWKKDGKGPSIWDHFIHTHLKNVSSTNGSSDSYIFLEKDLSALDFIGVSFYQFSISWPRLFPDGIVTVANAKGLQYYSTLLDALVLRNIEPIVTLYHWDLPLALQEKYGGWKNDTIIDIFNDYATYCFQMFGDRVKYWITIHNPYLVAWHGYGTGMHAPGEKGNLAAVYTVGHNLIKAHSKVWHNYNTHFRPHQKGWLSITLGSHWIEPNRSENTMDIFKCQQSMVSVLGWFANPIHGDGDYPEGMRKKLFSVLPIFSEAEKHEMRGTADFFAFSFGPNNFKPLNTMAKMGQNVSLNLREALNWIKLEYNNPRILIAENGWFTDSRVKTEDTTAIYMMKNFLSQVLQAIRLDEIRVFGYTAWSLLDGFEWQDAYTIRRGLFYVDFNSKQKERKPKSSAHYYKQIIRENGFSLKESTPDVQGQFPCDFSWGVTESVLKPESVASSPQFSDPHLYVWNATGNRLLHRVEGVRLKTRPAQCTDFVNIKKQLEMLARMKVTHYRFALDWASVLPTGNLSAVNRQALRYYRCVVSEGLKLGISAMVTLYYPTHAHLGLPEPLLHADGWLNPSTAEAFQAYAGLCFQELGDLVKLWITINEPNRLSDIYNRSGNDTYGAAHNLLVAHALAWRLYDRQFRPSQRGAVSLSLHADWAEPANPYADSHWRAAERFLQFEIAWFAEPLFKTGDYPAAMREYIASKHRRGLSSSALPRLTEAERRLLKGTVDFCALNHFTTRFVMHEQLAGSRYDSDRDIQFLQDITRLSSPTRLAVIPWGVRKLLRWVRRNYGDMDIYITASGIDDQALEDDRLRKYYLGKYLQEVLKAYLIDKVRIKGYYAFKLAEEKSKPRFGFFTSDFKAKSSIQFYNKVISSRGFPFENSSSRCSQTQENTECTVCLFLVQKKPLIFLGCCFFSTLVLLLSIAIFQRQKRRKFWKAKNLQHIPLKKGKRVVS
Sequence of 3T3-L1 adipocytes (Q99N32 whole entry): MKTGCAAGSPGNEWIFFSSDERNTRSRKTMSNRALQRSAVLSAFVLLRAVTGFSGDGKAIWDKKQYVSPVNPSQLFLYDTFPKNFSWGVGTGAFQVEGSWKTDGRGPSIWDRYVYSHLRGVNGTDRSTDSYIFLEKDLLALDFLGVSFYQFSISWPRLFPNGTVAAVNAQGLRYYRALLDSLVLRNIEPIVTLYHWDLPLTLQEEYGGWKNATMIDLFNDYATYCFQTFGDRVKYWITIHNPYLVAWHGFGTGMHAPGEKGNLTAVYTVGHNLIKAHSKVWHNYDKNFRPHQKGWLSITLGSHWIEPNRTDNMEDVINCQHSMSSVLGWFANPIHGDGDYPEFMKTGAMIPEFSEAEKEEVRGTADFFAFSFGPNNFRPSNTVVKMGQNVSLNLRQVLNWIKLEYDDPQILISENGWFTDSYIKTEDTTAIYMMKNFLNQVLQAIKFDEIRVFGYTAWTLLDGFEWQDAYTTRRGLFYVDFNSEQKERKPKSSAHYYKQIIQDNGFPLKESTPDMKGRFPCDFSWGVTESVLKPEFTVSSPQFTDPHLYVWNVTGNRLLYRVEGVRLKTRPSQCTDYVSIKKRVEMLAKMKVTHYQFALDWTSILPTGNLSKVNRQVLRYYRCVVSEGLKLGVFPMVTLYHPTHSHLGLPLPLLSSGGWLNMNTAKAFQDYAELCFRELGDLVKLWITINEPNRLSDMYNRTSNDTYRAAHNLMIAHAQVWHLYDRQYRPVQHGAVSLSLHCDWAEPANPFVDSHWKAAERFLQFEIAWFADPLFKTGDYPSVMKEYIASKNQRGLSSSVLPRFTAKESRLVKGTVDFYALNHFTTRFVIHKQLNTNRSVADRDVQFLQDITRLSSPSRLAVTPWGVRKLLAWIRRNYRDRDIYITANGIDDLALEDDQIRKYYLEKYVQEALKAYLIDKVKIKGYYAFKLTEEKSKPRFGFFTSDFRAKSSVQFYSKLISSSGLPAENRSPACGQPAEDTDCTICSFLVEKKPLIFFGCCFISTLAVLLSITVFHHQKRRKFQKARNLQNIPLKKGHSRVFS
Sequence of 3T3-L1 adipocytes (P16092 22-822): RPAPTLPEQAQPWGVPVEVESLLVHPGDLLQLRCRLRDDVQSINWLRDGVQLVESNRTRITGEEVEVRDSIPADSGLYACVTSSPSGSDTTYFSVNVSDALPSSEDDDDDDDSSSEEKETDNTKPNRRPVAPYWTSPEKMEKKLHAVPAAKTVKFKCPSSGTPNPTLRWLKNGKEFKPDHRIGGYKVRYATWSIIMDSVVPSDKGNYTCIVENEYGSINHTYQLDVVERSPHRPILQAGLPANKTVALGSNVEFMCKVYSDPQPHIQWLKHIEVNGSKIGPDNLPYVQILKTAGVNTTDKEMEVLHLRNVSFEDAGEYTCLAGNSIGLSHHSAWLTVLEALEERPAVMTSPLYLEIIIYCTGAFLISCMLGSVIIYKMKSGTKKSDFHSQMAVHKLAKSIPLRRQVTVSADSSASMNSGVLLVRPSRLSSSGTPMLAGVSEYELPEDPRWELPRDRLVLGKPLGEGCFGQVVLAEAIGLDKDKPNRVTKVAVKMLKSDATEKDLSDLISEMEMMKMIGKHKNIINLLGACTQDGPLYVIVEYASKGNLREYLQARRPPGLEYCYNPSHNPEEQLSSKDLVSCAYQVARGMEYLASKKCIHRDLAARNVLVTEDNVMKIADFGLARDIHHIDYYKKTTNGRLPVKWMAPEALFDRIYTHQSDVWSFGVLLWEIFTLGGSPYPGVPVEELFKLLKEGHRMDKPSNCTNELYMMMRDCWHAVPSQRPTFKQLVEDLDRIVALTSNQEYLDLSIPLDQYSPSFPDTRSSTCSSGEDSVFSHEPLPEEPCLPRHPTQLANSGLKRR

Turning to “S{Beta-178}-[2-[2-[[2-[2-[2-[[2-[2-[2-[[(4S)-4-carboxy-4-(15-carboxypentadecanoyl-amino)butanoyl]amino]ethoxy]ethoxy]acetyl]amino]ethoxy]ethoxy]acetyl]amino]-ethylamino]-2-oxoethyl]-Ala[Gln121,Leu168,Cys178]FGF21 [Compound 11]”, the EC50 in assay [1] was determined as 186 nM; in assay [2] (absence of HSA, read-out: EC50), 167 nM; in assay [2] (setting [3]), 137 nM. The “Glucose uptake Emax” value in assay [1] came to 59%.

B1: S{Beta-180}-2-aminoethylsulfanyl-Ala[Gln121, Leu168, Cys180]FGF21 (protein)
chain: AHPIPDSSPLLQFGGQVRQRYLYTDDAQQTEAHLEIREDGTVGGAADQSPESLLQLKALKPGVIQILGVKTSRFLCQRPDGALYGSLHFDPEACSFRELLLEDGYNVYQSEAHGLPLHLPGQKSPHRDPAPRGPARFLPLPGLPPALPEPPGILAPQPPDVGSSDPLSLVGPSQGRSPSYCS
modifications: N-terminal Ala; cysteamine disulfide on Cys180
Consider B1, for which, in assay [1], the EC50 worked out at 2.6 nM and the “Glucose uptake Emax” value came out at 102%. The EC50 in assay [2] (absence of HSA, read-out: EC50) was determined as 2.3 nM. For the same molecule, in assay [2] (absence of HSA), the “potency in HEK293/BKL cells compared with MetFGF21 or corresponding analogue (in words)” value was “potency similar to both MetFGF21 and Compound 2”.

B2: S{Beta-179}-2-aminoethylsulfanyl-Ala[Gln121, Leu168, Cys179]FGF21 (protein)
chain: B1 chain with Y180C, C181A
modifications: N-terminal Ala; cysteamine disulfide on Cys179
As for B2, in assay [1], the EC50 stood at 25 nM and the “Glucose uptake Emax” value stood at 77%. Also, the EC50 in assay [2] (absence of HSA, read-out: EC50) was found to be 69 nM.

B3: S{Beta-181}-2-aminoethylsulfanyl-Ala[Gln121, Leu168, Cys181]FGF21 (protein)
chain: B1 chain with C181A, S182C
modifications: N-terminal Ala; cysteamine disulfide on Cys181
On to B3, for which, in assay [1], the midpoint of the response, the EC50, lay at 5 nM and the “Glucose uptake Emax” value is reported as 74%. Further, the EC50 in assay [2] (absence of HSA, read-out: EC50) is 27 nM. Also, the “potency in HEK293/BKL cells compared with MetFGF21 or corresponding analogue (in words)” value in assay [2] (absence of HSA) is given as “only slightly decreased as compared to MetFGF21”.

B4: S{Beta-178}-2-aminoethylsulfanyl-Ala[Gln121, Leu168, Cys178]FGF21 (protein)
chain: B1 chain with S179C, C181A
modifications: N-terminal Ala; cysteamine disulfide on Cys178
For the molecule B4, in assay [1], the EC50 stood at 50 nM and the “Glucose uptake Emax” value was 69%. Also, the EC50 in assay [2] (absence of HSA, read-out: EC50) is 105 nM.

B5: S{Beta-176}-2-aminoethylsulfanyl-Ala[Gln121, Leu168, Cys176]FGF21 (protein)
chain: B1 chain with S177C, C181A
modifications: cysteamine-protected Cys176
As for B5, the EC50 amounted to 73 nM in assay [1] and 227 nM in assay [2] (absence of HSA, read-out: EC50). Further, the “Glucose uptake Emax” value in assay [1] was determined as 84%.

B6: S{Beta-179}-[2-[2-[[2-[2-[2-[[2-[2-[2-[[(4S)-4-carboxy-4-(15-carboxypentadecanoyl-amino)butanoyl]amino]ethoxy]ethoxy]acetyl]amino]ethoxy]ethoxy]acetyl]amino]-ethylamino]-2-oxoethyl]-Ala[Gln121,Leu168, … (protein)
chain: HPIPDSSPLLQFGGQVRQRYLYTDDAQQTEAHLEIREDGTVGGAADQSPESLLQLKALKPGVIQILGVKTSRFLCQRPDGALYGSLHFDPEACSFRELLLEDGYNVYQSEAHGLPLHLPGQKSPHRDPAPRGPARFLPLPGLPPALPEPPGILAPQPPDVGSSDPLSLVGPSQGRSPSCAS
As to B6, the EC50 stood at 107 nM in assay [1]; 107 nM in assay [2] (absence of HSA, read-out: EC50); 134 nM in assay [2] (setting [3]). Also, in assay [1], the “Glucose uptake Emax” value is on record as 54%.

B7: 4-[10-[[4-[2-[2-[2-[2-[2-[2-[[(1S)-5-acetamido-1-carboxy-pentyl]amino]-2-oxo-ethoxy]ethoxy]ethylamino]-2-oxo-ethoxy]ethoxy]ethylamino]-4-oxo-butyl]sulfonylamino]-10-oxo-decoxy]benzoic … (protein)
chain: B6 chain with C179Y, S181C
Turning to B7, the EC50 amounted to 24.7 nM in assay [2] (absence of HSA, read-out: EC50) and 132 nM in assay [2] (setting [3]).

B8: 4-[10-[[(1S)-4-[2-[2-[2-[2-[2-[2-[[(1S)-5-acetamido-1-carboxy-pentyl]amino]-2-oxo-ethoxy]ethoxy]ethylamino]-2-oxo-ethoxy]ethoxy]ethylamino]-1-carboxy-4-oxo-butyl]amino]-10-oxo-decoxy]benzoic … (protein)
chain: B6 chain with C179Y, A180C
Consider B8, for which the EC50 in assay [2] (absence of HSA, read-out: EC50) worked out at 5 nM; in assay [2] (setting [3]), 3 nM.

B9: S{Beta-180}-[2-[2-[[2-[2-[2-[[2-[2-[2-[[(4S)-4-carboxy-4-(19-carboxynonadecanoyl-amino)butanoyl]amino]ethoxy]ethoxy]acetyl]amino]ethoxy]ethoxy]acetyl]amino]-ethylamino]-2-oxoethyl]-Ala[Gln121,Leu168,C … (protein)
chain: B6 chain with C179Y, A180C
Regarding B9, the EC50 in assay [1] was determined as 24 nM; in assay [2] (absence of HSA, read-out: EC50) it was 5 nM; in assay [2] (setting [3]), 133 nM. The “Glucose uptake Emax” value in assay [1] is 53%.

B10: S{Beta-180}-[2-[2-[[2-[2-[2-[[2-[2-[2-[[(4S)-4-carboxy-4-(17-carboxyheptadecanoyl-amino)butanoyl]amino]ethoxy]ethoxy]acetyl]amino]ethoxy]ethoxy]acetyl]amino]-ethylamino]-2-oxoethyl]-Ala[Gln121,Leu168, … (protein)
chain: HPIPDSSPLLQFGGQVRQRYLYTDDAQQTEAHLEIREDGTVGGAADQSPESLLQLKALKPGVIQILGVKTSRFLCQRPDGALYGSLHFDPEACSFRELLLEDGYNVYQSEAHGLPLHLPGQKSPHRDPAPRGPARFLPLPGLPPALPEPPGILAPQPPDVGSSDPLSLVGPSQGRSPSYC
Consider B10, for which the EC50 in assay [1] is 8 nM; in assay [2] (absence of HSA, read-out: EC50), 8 nM; in assay [2] (setting [3]), 20 nM. The “Glucose uptake Emax” value in assay [1] came to 71%.

B11: S{Beta-180}-2-aminoethylsulfanyl-Ala[Gln121, Leu168, Cys180, des181]FGF21 (protein)
chain: AHPIPDSSPLLQFGGQVRQRYLYTDDAQQTEAHLEIREDGTVGGAADQSPESLLQLKALKPGVIQILGVKTSRFLCQRPDGALYGSLHFDPEACSFRELLLEDGYNVYQSEAHGLPLHLPGQKSPHRDPAPRGPARFLPLPGLPPALPEPPGILAPQPPDVGSSDPLSLVGPSQGRSPSYC
modifications: N-terminal Ala; cysteamine disulfide on Cys180
In the case of B11, in assay [1], it took 73 nM to reach a half-maximal effect (EC50) and the “Glucose uptake Emax” value is reported as 72%. Also, in assay [2] (absence of HSA, read-out: EC50), the EC50 was determined as 20 nM.
